Assay [1] concerns the target T1, human beta-DG extracellular domain (human, UniProt Q14118 654-749, biotinylated in the Example 6 ELISA).
T1 construct: extracellular domain; Expression of the soluble human protein is not described; also called hBeta-DG; hbeta-DG
T1 sequence (looked up): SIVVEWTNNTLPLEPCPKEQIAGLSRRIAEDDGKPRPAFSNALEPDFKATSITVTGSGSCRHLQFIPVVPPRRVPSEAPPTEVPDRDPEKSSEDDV
As to the kind of experiment: SPR (Biacore), mAb immobilized, hBeta-DG in flow. In general terms: SPR reads the build-up and loss of mass on a sensor chip optically.

For assay [2], the target named is T2, murine beta-DG extracellular domain (mbeta-DG ECD) (mouse, UniProt Q62165 652-746).
T2 construct: range 652-746; Made in E. coli; also called mbeta-DG-HPC4; m βDG; not shown: C-terminal HPC4 tag
T2 sequence (looked up): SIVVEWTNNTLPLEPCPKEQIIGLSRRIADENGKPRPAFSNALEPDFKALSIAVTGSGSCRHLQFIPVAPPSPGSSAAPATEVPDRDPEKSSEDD
As to the kind of experiment: SPR (Biacore), mAb immobilized, mBeta-DG in flow.

The target in assay [3] is T3, murine laminin G-like 5 domain (mLG-5) (mouse, UniProt Q60675 2932-3118, biotinylated (Avi tag) ; Biotinylated at the Avi tag (soluble biotinylated protein); the tag is left out of the letters.).
T3 construct: Soluble protein from Expi293F cells; also called murine LG-5
T3 sequence: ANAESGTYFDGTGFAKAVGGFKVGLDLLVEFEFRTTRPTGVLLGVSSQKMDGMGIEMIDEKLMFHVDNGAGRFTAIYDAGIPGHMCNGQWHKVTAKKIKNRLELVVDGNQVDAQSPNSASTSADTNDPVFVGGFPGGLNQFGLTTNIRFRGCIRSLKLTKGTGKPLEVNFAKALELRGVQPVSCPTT
As to the kind of experiment: SPR (Biacore), mAb immobilized, mLG-5 in flow.

Assay [4] deals with T1, human beta-DG extracellular domain. As to the kind of experiment: SPR (Biacore T100), antibody captured on Protein G chip, BDG in flow, 1:1 model.
The target of assay [5] is T4, Fabrazyme (agalsidase beta, Genzyme) (UniProt P06280 32-429).
T4 construct: Negative control in the dot blots
T4 sequence (looked up): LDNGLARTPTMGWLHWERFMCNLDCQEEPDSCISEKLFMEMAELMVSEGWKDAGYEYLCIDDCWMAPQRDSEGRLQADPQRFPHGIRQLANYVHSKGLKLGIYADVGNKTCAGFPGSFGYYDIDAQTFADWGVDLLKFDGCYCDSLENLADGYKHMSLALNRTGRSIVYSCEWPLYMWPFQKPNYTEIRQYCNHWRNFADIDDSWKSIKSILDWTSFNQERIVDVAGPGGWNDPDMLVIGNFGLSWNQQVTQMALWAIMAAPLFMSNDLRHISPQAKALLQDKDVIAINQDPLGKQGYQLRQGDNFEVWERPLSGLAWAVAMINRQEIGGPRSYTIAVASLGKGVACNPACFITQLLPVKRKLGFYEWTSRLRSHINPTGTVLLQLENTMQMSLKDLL
As to the kind of experiment: dot blot.

Positions count from the first letter of the chain named.

B1: anti-beta-DG antibody phage display clone B04 (antibody, V domains shown)
VH: QVQLQQSGGGLVQPGGSLRLSCAASGFTFSSYAMSWVRQAPGKGLEWVSAISGSGGSTYYADSVKGRFTVSRDNSKNTLYLQMNSLRAEDTAVYYCARLGYCSSTSCYLSAFDIWGQGTMVTVSS
VL: EIVLTQSPSTLSASVGDRVTITCRASQSISSWLAWYQQKPGKAPKLLIYDASSLESGVPSRFSGSGSGTEFTLTISSLQPDDFATYYCQQYNSYPLTFGGGTKVEIK
notes: Phage display clone
By Kd is commonly meant the equilibrium constant for the complex coming apart. Read a low Kd as tighter binding. B1 showed a Kd in assay [1] of 2.57 nM.

B2: anti-beta-DG antibody derived from phage display clone B06 (antibody, V domains shown)
VH: QIQLVQSGAEVKKPGKSLKIACKGSGYSFSNYWIGWVRQMPGKGLEWMGIIYPGDSDTRYSPSFHGQVTISADKSISTAYLQWSSLKASDTAMYYCARGVIINGTTSGFDYWGQGTLVIVSS
VL: ETTLTQSPATLSVSPGERATLSCRASQSVSSNLAWYQQKPGQAPRLLMYGASTRATGIPARFSGSGSGTEFTLTISSLQSEDFAVYYCQHYNNLPLTFGGGTKVDLK
notes: Phage display clone; also called B6
As usually defined, the koff is the rate constant with which the complex falls apart. Read a low koff as a long-lived complex. The term kon denotes a measure of how fast the partners come together. The low end stands for slower complex formation, the high end for faster complex formation. As for B2, in assay [1], the Kd turned out to be 2.36 nM, the koff is 0.00216 s⁻¹ and the kon is 968000 M⁻¹ s⁻¹. For the same molecule, in assay [2], the Kd came out at 162 nM, the koff was 0.00232 s⁻¹ and the kon was found to be 14300 M⁻¹ s⁻¹.

B3: anti-laminin-2 antibody derived from hybridoma clone C3 (antibody, V domains shown)
VH: DVMLVESGGDLVKPGGSLKLSCAASGFTFSSYTMSWVRQTPEKRLEWVASISSGGGNTYYPDSVKGRFTISRDNAKNNLYLQMSSLRSEDTALYYCARFDYGSSLDSWGQGTTLTVSS
VL: DIVLTQSPATLSVTPGDSVSLSCRASQSISNNLHWYQQKSHESPRLLIKYASQSISGIPSRFSGSGSGTDFTLSINSVETEDFGMYFCQQSKNWPRTFGGGTKLEIK
notes: Hybridoma-derived monoclonal antibody detected with anti-mouse IgG; Chimeric human IgG1/kappa versions were also made; also called C03; anti-laminin-2(C3)
Consider B3, for which, in assay [3], the Kd was 8.27 nM.

B4: triAb 3407 (bispecific antibody, human IgG1, kappa)
light 1: EIVLTQSPDFLSVTPKEKVTLTCRASQSISNNLHWYQQKSDQSPKLLIKYASQSISGIPSRFSGSGSGTDFTLTINSVEAEDAATYFCQQSKSWPRTFGGGTKLEIKDKTHTEIVLTQSPDFLSVTPKEKVTLTCRASQSISNNLHWYQQKSDQSPKLLIKYASQSISGIPSRFSGSGSGTDFTLTINSVEAEDAATYFCQQSKSWPRTFGGGTKLEIKDKTHTRTVAAPSVFIFPPSDEQLKSGTASVVCLLNNFYPREAKVQWKVDNALQSGNSQESVTEQDSKDSTYSLSSTLTLSKADYEKHKVYACEVTHQGLSSPVTKSFNRGEC
heavy 1: EVQLVESGGGLVKPGGSLRLSCAASGFTFSSYTMSWVRQAPGKGLEWVASISSSGSNTYYPDSVKGRFTISRDNAKNNLYLQMNSLRAEDTALYYCARFDYGSSLDSWGQGTLLTVSSDKTHTEVQLVESGGGLVKPGGSLRLSCAASGFTFSSYTMSWVRQAPGKGLEWVASISSSGSNTYYPDSVKGRFTISRDNAKNNLYLQMNSLRAEDTALYYCARFDYGSSLDSWGQGTLLTVSSDKTHTASTKGPSVFPLAPSSKSTSGGTAALGCLVKDYFPEPVTVSWNSGALTSGVHTFPAVLQSSGSLSSVVTVPSSSLGTQTYICNVNHKPSNTKVDKKVEPKSCDKTHTCPPCPAPELLGGPSVFLFPPKPKDTLYITREPEVTCVVVDVSHEDPEVKFNWYVDGVEVHNAKTKPREEQYNNASRVVSVLTVLHQDWLNGKEYKCKVSNKALPAPIEKTISKAKGQPREPQVYTLPPCRDELTKNQVSLWCLVKGFYPSDIAVEWESNGQPENNYKTTPPVLDSDGSFFKKLTVDKSRWQQGNVFSCSVMHEALHNHYTQKSLSLSPG
heavy 2: QVQLVQSGAEVVKPGSSVKVSCEASGFTFTDSVITWVRQRPGQGLEWIGEIYPGSGNFYYNEKFQGRVTITADKSTSTAYMELSSLRSEDTAVYFCAMRRSSWGQGTLVTVSSASTKGPSVFPLAPSSKSTSGGTAALGCLVKDYFPEPVTVSWNSGALTSGVHTFPAVLQSSGSLSSVVTVPSSSLGTQTYICNVNHKPSNTKVDKKVEPKSCDKTHTCPPCPAPELLGGPSVFLFPPKPKDTLYITREPEVTCVVVDVSHEDPEVKFNWYVDGVEVHNAKTKPREEQYNNASRVVSVLTVLHQDWLNGKEYKCKVSNKALPAPIEKTISKAKGQPREPQVCTLPPSRDELTKNQVSLSCAVKGFYPSDIAVEWESNGQPENNYKTTPPVLDSDGSFFLVSKLTVDKSRWQQGNVFSCSVMHEALHNRFTQKSLSLSPG
light 2: DVVMTQTPLSLSVTPGQPASISCKSSQTIVHSNSKTYLEWYLQKPGQSPQLLIYKVSSRFSGVPDRFSGSGSGTDFTLKISRVEAEDVGVYYCFQGSHVPLTFGQGTKLEIKRTVAAPSVFIFPPSDEQLKSGTASVVCLLNNFYPREAKVQWKVDNALQSGNSQESVTEQDSKDSTYSLSSTLTLSKADYEKHKVYACEVTHQGLSSPVTKSFNRGEC
notes: Constant regions with knob-in-hole, NNAS, YTE and RF variants
In assay [4], B4 showed a dissociation constant (Kd) of 2.08 nM, a koff of 0.00326 s⁻¹ and a kon of 1.57e+06 M⁻¹ s⁻¹.

B5: triAb 3429 (bispecific antibody, human IgG1, kappa)
light 1: B4 light 1 with K16G, N32Y, I58V, N76S, A83F, S142G
heavy 1: B4 heavy 1 with K136Q, S173T, S179D, A198S, N201T, N207S, L236T
heavy 2: B4 heavy 2
light 2: B4 light 2
In assay [4], B5 yielded a Kd of 1.9 nM, a koff of 0.00404 s⁻¹ and an on-rate constant (kon) of 2.13e+06 M⁻¹ s⁻¹.

B6: triAb 3423 (bispecific antibody, human IgG1, kappa)
light 1: B4 light 1 with T22S, N32Y, T74S
heavy 1: B4 heavy 1
heavy 2: B4 heavy 2
light 2: B4 light 2
In the case of B6, in assay [4], binding was put at a Kd of 1.6 nM, the koff was 0.00433 s⁻¹ and the kon worked out at 2.7e+06 M⁻¹ s⁻¹.

B7: triAb 3437 (bispecific antibody, human IgG1, kappa)
light 1: B4 light 1 with S30G, T134S, N144Y, T186S
heavy 1: B4 heavy 1
heavy 2: B4 heavy 2
light 2: B4 light 2
Regarding B7, in assay [4], the Kd is 1.87 nM, the koff worked out at 0.0045 s⁻¹ and the kon stood at 2.41e+06 M⁻¹ s⁻¹.

B8: triAb 3439 (bispecific antibody, human IgG1, kappa)
light 1: B4 light 1 with K128G, N144Y, I170V, N188S, A195F
heavy 1: B4 heavy 1 with K13Q, S50T, S56D, A75S, N78T, N84S, L113T
heavy 2: B4 heavy 2
light 2: B4 light 2
In assay [4], B8 came in with a Kd of 1.3 nM, a dissociation rate constant (koff) of 0.004 s⁻¹ and a kon of 3.07e+06 M⁻¹ s⁻¹.

B9: anti-beta-DG antibody derived from hybridoma clone AS30 (antibody, V domains shown)
VH: QIQLQQSGPELVKPGASVKMSCEASGFTFTDSVITWVKQRPGQGLEWIGEIYPGSGNFYYNEKFKGKATLTADKSSNTAYMQLRSLTSEDSAVYFCAMRRSSWGQGTLVTVSA
VL: DVLMTQTPLSLPVSLGDQASISCRSSQTIVHSNSKTYLEWYLQKPGQSPKLLIYKVSNRFSGVPDRFSGSGSGTDFTLKISRVEAEDLGVYYCFQGSHVPLTFGAGTKLELK
notes: detected with anti-mouse IgG
In assay [1], B9 showed a Kd of 1.08 nM, a koff of 0.000963 s⁻¹ and a kon of 890000 M⁻¹ s⁻¹. The binding result in assay [5] is recorded as “no binding”. In assay [2], this molecule returned a Kd of 1.48 nM, a koff of 0.00113 s⁻¹ and a kon of 773000 M⁻¹ s⁻¹.

B10: anti-beta-DG antibody derived from hybridoma clone AS19 (antibody, V domains shown)
VH: B9 VH with I2V, E23K, T35S, P41T, N57S, F58I, S102Y
VL: B9 VL with T28S, S34G, K35N
notes: Hybridoma-derived monoclonal antibody detected with anti-mouse IgG; also called parental anti-beta-DG (clone AS19)
As for B10, the binding result in assay [5] was “no binding”.

These data come from patent publication EP4659808A2 (Sanofi, dated 2025).
